Experimental findings from publication PMC12282080, “Molecular mechanism of potently neutralizing human monoclonal antibodies against severe fever with thrombocytopenia virus infection” (Journal of Virology, 2025) are described below.

For orientation: Kd means the constant that tells how readily two partners part at equilibrium.

Holding throughout (settings): both partners purified
Assay [1] addresses SFTSV Gn glycoprotein (G19-K452, C3 genotype) (SFTSV (Dabie bandavirus), strain SDTA1, …, UniProt A0A1S6K8S9, strain). Briefly: BLI.
For assay [2], the target named is T1, SFTSV Gn head (positions 19-337), C2 genotype (P24-Vero_2021/China) (SFTSV (Dabie bandavirus), strain …, strain).
T1 construct: source: HEK293F cells (Sino Biological), purified (HisTrap, size exclusion)
Nature of the assay: SPR. (Surface plasmon resonance follows binding to a sensor surface in real time, without labels.)

In assay [3] the target is T2, SFTSV Gn head (positions 19-337), J1 genotype (KU18-5/Japan) (SFTSV (Dabie bandavirus), strain …, strain).
T2 construct: source: HEK293F cells (Sino Biological), purified (HisTrap, size exclusion)
Briefly: SPR.

Assay [4] has as its target T3, SFTSV Gn head (positions 19-337), C3 genotype (SDTA1/China) (SFTSV (Dabie bandavirus), strain SDTA1, …, UniProt A0A1S6K8S9, strain).
T3 construct: source: HEK293F cells (Sino Biological), purified (HisTrap, size exclusion)
Briefly: SPR.

Assay [5] has as its target T4, SFTSV Gn head (as crystallised with the Fabs) (SFTSV (Dabie bandavirus), strain SDTA1, …).
T4 construct: also called Gn protein
Nature of the assay: crystal structure.

B1: SD4 monoclonal antibody (human IgG1) (antibody, V domains shown)
VH: QVQLVESGGGVVQPGRSLRLSCAASGFPFSGYGMHWVRQAPGKGLEWVAVISYDGSEKNYADSVKGRFTISRDNSKNTLYLQMNSLRVEDTAVYYCAKDRDYYGSGFYDYWGQGTLVTVSS
VL: DIQMTQSPSSLSASVGDRVTITCQASQHISNHLNWYQQKPGTAPTLLIYEASNLETGVPSRFSGSGSGTDFSFTISSLRPEDFATYYCQQYDNFPLTFGPGTTMDIK
notes: also called mAb SD4
As for B1, the Kd is 0.096 nM in assay [1], 0.0321 nM in assay [2], 0.0628 nM in assay [3] and 0.0827 nM in assay [4].

B2: SD4-S monoclonal antibody (human IgG1) (antibody, V domains shown)
VH: QVQLVESGGGVLQPGRSLRLSCAASGFTFSGYGMHWVRQAPGKGLEWVAVISYDGSEKNYGDSVKGRFTISRDNSKNTLYLQINSLRTEDRAVYYCAKDRDYFGSGFFDYWGQGTLVTVSS
VL: DIQMTQSPSSLSASVGDRVTITCQASQDITKYLNWYQQKPGKAPKLLIFEASNLETGVPSRFSGSGSGTDFTFTISSLQPEDFATYYCQQYGDFPLTFGGGTKVEIK
For B2, the binding result in assay [1] is “binds”.

B3: SD4-X monoclonal antibody (human IgG1) (antibody, V domains shown)
VH: QVQLVESGGGVVQPGRSLRLSCAASGFTFSSYGMHWVRQAPGKGLEWVAVISYDGSNKYYADSVKGRFTISRDNSKNTLYLQMNSLRAEDTAVYYCAKDRDYYGSGFFDYWGQGTLVTVSS
VL: DIQMTQSPSSLSASVGDRVTITCQASQDISNHLNWYQEKPGKVPKLLIYEASNVETGVPSRFSGSGSGTDFTFTISSLQPEDIATYYCQQYDNLPYTFGQGTKLEIK
For the molecule B3, the binding result in assay [1] is on record as “binds”.

B4: SD4 Fab (Fab, V domains shown)
VH: QVQLVESGGGVVQPGRSLRLSCAASGFPFSGYGMHWVRQAPGKGLEWVAVISYDGSEKNYADSVKGRFTISRDNSKNTLYLQMNSLRVEDTAVYYCAKDRDYYGSGFYDYWGQGTLVTVSS
VL: DIQMTQSPSSLSASVGDRVTITCQASQHISNHLNWYQQKPGTAPTLLIYEASNLETGVPSRFSGSGSGTDFSFTISSLRPEDFATYYCQQYDNFPLTFGPGTTMDIK
notes: source: purified
As to B4, the binding result in assay [5] is given as “binds”.

B5: SD22 monoclonal antibody (human IgG1) (antibody, V domains shown)
VH: QVQLVESGGGVVQPGRSLRLSCAASGFTFSGFGMHWVRQAPGKGLEWVALISYDGSDTYYSDSVKGRFTISRDNSKNTLYLQLKSLRPDDTAVYYCVGDRDYFGSGFFDHWGQGTLVTVSS
VL: DIQMTQSPSSLSASIGDRVTITCRASRHITNHLNWYQHKPGRAPKLLIYEASNLQAGVPSRFSGSGSGTDFTFTISSLQPEDFATYYCQQYDNLPPAFGGGTKVDIK
notes: IgG1; germline IGHV3-30; also called mAb SD22
B5: the Kd in assay [2] amounted to 0.0515 nM; in assay [3] it was 0.0557 nM; in assay [4], 0.0542 nM.

B6: SD22 Fab (Fab, V domains shown)
VH: QVQLVESGGGVVQPGRSLRLSCAASGFTFSGFGMHWVRQAPGKGLEWVALISYDGSDTYYSDSVKGRFTISRDNSKNTLYLQLKSLRPDDTAVYYCVGDRDYFGSGFFDHWGQGTLVTVSS
VL: DIQMTQSPSSLSASIGDRVTITCRASRHITNHLNWYQHKPGRAPKLLIYEASNLQAGVPSRFSGSGSGTDFTFTISSLQPEDFATYYCQQYDNLPPAFGGGTKVDIK
notes: source: purified
Consider B6, for which the binding result in assay [5] was “binds”.

B7: SD12 monoclonal antibody (human IgG1) (antibody, V domains shown)
VH: EVQLLESGGGLVQPGGSLRLSCAASGFIFSSYAMSWVRQAPGKGLEWVSAISGSGGSTYYADSVKGRFTISRDNSKNTLYLQMNSLRDEDTAVYYCAKDRSYVSSGFFDDWGQGTLVTVSS
VL: DIQMTQSPSSLSASVGDRVTITCQASQDISNYLNWYQQRPGKAPKLLIFEASNLETGVPSRFSGSGSGTDFTFTISSLQPEDIATYYCQQYENLLYTFGQGTKLEIK
notes: IgG1; also called mAb SD12
In the case of B7, the Kd in assay [2] worked out at 74.1 nM; in assay [3] it was 60.2 nM; in assay [4], 87.8 nM.

B8: SD12 Fab (Fab, V domains shown)
VH: EVQLLESGGGLVQPGGSLRLSCAASGFIFSSYAMSWVRQAPGKGLEWVSAISGSGGSTYYADSVKGRFTISRDNSKNTLYLQMNSLRDEDTAVYYCAKDRSYVSSGFFDDWGQGTLVTVSS
VL: DIQMTQSPSSLSASVGDRVTITCQASQDISNYLNWYQQRPGKAPKLLIFEASNLETGVPSRFSGSGSGTDFTFTISSLQPEDIATYYCQQYENLLYTFGQGTKLEIK
notes: source: purified
As to B8, the binding result in assay [5] is on record as “binds”.
